Assay results taken from the RNAGym collection of RNA variant scans (doi:10.7554/elife.80360).

B1: CPEB3 Ribozyme (parent)
chain: GGGGGCCACAGCAGAAGCGUUCACGUCGCGGCCCCUGUCAGAUUCUGGUGAAUCUGCGAAUUCUGCUGU

Variants of: B1
Assay: self-cleavage, relative activity (ratio to wild type); higher = more cleavage; co-transcriptional

| Variant | self-cleavage |
| --- | --- |
| GGGGGCCACAGCAGAAGAGUGCACGUCGCGGCCCCUGUCAGAUUCUGGUGAAUCUGCGAAUUCUGCUGU | 0.109 |
| GGGGGCCACAGCAGAAGAGUCCACGUCGCGGCCCCUGUCAGAUUCUGGUGAAUCUGCGAAUUCUGCUGU | 0.181 |
| GGGGGCCACAGCAGAAGAGUACACGUCGCGGCCCCUGUCAGAUUCUGGUGAAUCUGCGAAUUCUGCUGU | 0.107 |
| GGGGGCCACAGCAGAAGAGUUCACGUCGCGGCCCCUGUCAGAUUCUGGUGAAUCAGCGAAUUCUGCUGU | 0.142 |
| GGGGGCCACAGCAGAAGAGUUCACGUCGCGGCCCCUGUCAGAUUCUGGUGAAUCGGCGAAUUCUGCUGU | 0.113 |
| GGGGGCCACAGCAGAAGAGUUCACGUCGCGGCCCCUGUCAGAUUCUGGUGAAUCUGCGAAUUCUACUGU | 0.148 |
| GGGGGCCACAGCAGAAGAGUUCACGUCGCGGCCCCUGUCAGAUUCUGGUGAAUCUGCGAAUUCUUCUGU | 0.102 |
| GGGGGCCACAGCAGAAGAGUUCACGUCGCGGCCCCUGUCAUAUUCUGGUGAAUCUGCGAAUUCUGCUGU | 0.211 |
| GGGGGCCACAGCAGAAGAGUUCACGUCGCGGCCCCUGUCACAUUCUGGUGAAUCUGCGAAUUCUGCUGU | 0.119 |
| GGGGGCCACAGCAGAAGAGUUCACGUCGCGGCCCCUGUCAGAUUCUGGUGAAUCUGCGAAUUUUGCUGU | 0.151 |
| GGGGGCCACAGCAGAAGAGUUCACGUCGCGGCCCCUGUCAGAUUCUGGUGAAUCUGCGAAUUGUGCUGU | 0.147 |
| GGGGGCCACAGCAGAAGAGUUCACGUCGCGGCCCCUGCCAGAUUCUGGUGAAUCUGCGAAUUCUGCUGU | 0.0484 |
| GGGGGCCACAGCAGAAGAGUUCACGUCGCGGCCCCUGACAGAUUCUGGUGAAUCUGCGAAUUCUGCUGU | 0.0704 |
| GGGGGCCACAGCAGAAGAGUUCACGUCGCGGCCCCUGUCAGAUUCUGGGGAAUCUGCGAAUUCUGCUGU | 0.259 |
| GGGGGCCACAGCAGAAGACUUCACGUCGCGGCCCCUGUCAGAUUCUGGUGAAUCUGCGAAUUCUGCUGU | 0.0974 |
| GGGGGCCACAGCAGAAGAUUUCACGUCGCGGCCCCUGUCAGAUUCUGGUGAAUCUGCGAAUUCUGCUGU | 0.12 |
| GGGGGCCACAGCAGAAGGGUUCACGUCGCGGCCCCUGUCAGUUUCUGGUGAAUCUGCGAAUUCUGCUGU | 0.137 |
| GGGGGCCACAGCAGAAGGGUUCACGUCGCGGCCCCUGUCAGGUUCUGGUGAAUCUGCGAAUUCUGCUGU | 0.229 |
| GGGGGCCACAGCAGAAGGGUUCACGUGGCGGCCCCUGUCAGAUUCUGGUGAAUCUGCGAAUUCUGCUGU | 0.224 |
| GGGGGCCACAGCAGAAGGGUUCACGUAGCGGCCCCUGUCAGAUUCUGGUGAAUCUGCGAAUUCUGCUGU | 0.16 |

| Variant | self-cleavage |
| --- | --- |
| GGGGGCCACAGCAGAAGGGUUCAAGUCGCGGCCCCUGUCAGAUUCUGGUGAAUCUGCGAAUUCUGCUGU | 0.105 |
| GGGGGCCACAGCAGAAGAGUUCACGUCGCGGCCCCUGUCAGAUUCUGGUGAAUCUGCGAAUUCGGCUGU | 0.178 |
| GGGGGCCACAGCAGAAGAGCUCACGUCGCGGCCCCUGUCAGAUUCUGGUGAAUCUGCGAAUUCUGCUGU | 0.158 |
| GGGGGCCACAGCAGAAGAGUUCACUUCGCGGCCCCUGUCAGAUUCUGGUGAAUCUGCGAAUUCUGCUGU | 0.0886 |
| GGGGGCCACAGCAGAAGAGUUCACCUCGCGGCCCCUGUCAGAUUCUGGUGAAUCUGCGAAUUCUGCUGU | 0.178 |
| GGGGGCCACAGCAGAAGGGUUGACGUCGCGGCCCCUGUCAGAUUCUGGUGAAUCUGCGAAUUCUGCUGU | 0.236 |
| GGGGGCCACAGCAGAAGGGUUAACGUCGCGGCCCCUGUCAGAUUCUGGUGAAUCUGCGAAUUCUGCUGU | 0.179 |
| GGGGGCCACAGCAGAAGAGUUCACGUCGCGGCCCCUGUCAGAUUCUGGUGAAUCUGCUAAUUCUGCUGU | 0.184 |
| GGGGGCCACAGCAGAAGAGUUCACGUCGCGGCCCCUGUCAGAUUCUGGUGAAUCUGCAAAUUCUGCUGU | 0.155 |
| GGGGGCCACAGCAGAAGGGUUCCCGUCGCGGCCCCUGUCAGAUUCUGGUGAAUCUGCGAAUUCUGCUGU | 0.187 |
| GGGGGCCACAGCAGAAGAGUUCACGUCGCGUCCCCUGUCAGAUUCUGGUGAAUCUGCGAAUUCUGCUGU | 0.129 |
| GGGGGCCACAGCAGAAGAGUUCACGUCGCGACCCCUGUCAGAUUCUGGUGAAUCUGCGAAUUCUGCUGU | 0.187 |
| GGGGGCCACAGCAGAAGAGUUCACGUCGCGCCCCCUGUCAGAUUCUGGUGAAUCUGCGAAUUCUGCUGU | 0.124 |
| GGGGGCCACAGCAGAAGAGUUCACGUCGCGGCCCCUUUCAGAUUCUGGUGAAUCUGCGAAUUCUGCUGU | 0.121 |
| GGGGGCCACAGCAGAAGAGUUCACGUCGCGGCCCCUAUCAGAUUCUGGUGAAUCUGCGAAUUCUGCUGU | 0.14 |
| GGGGGCCACAGCAGAAGAGUUCACGUCGCGGCCCCUGUCAGAUUCUGGUGAAUCUGCGAAUUCUGCUAU | 0.357 |
| GGGGGCCACAGCAGAAGAGUUCACGUCGCGGCCCCUGUCAGAUUCUGGUGAAUCUGCGAAUUCUGCUCU | 0.28 |
| GGGGGCCACAGCAGAAGAGUUCACGUCGCGGCCCCCGUCAGAUUCUGGUGAAUCUGCGAAUUCUGCUGU | 0.142 |
| GGGGGCCACAGCAGAAGAGUUCACGUCGCGGCCCCAGUCAGAUUCUGGUGAAUCUGCGAAUUCUGCUGU | 0.182 |
